# Laboratory results taken from patent US20250313611A1 (VIB VZW, published 2025).
# T1: MERS-COV spike expressed on transfected cells (MERS-CoV, UniProt K9N5Q8 18-1353)
# T1 sequence: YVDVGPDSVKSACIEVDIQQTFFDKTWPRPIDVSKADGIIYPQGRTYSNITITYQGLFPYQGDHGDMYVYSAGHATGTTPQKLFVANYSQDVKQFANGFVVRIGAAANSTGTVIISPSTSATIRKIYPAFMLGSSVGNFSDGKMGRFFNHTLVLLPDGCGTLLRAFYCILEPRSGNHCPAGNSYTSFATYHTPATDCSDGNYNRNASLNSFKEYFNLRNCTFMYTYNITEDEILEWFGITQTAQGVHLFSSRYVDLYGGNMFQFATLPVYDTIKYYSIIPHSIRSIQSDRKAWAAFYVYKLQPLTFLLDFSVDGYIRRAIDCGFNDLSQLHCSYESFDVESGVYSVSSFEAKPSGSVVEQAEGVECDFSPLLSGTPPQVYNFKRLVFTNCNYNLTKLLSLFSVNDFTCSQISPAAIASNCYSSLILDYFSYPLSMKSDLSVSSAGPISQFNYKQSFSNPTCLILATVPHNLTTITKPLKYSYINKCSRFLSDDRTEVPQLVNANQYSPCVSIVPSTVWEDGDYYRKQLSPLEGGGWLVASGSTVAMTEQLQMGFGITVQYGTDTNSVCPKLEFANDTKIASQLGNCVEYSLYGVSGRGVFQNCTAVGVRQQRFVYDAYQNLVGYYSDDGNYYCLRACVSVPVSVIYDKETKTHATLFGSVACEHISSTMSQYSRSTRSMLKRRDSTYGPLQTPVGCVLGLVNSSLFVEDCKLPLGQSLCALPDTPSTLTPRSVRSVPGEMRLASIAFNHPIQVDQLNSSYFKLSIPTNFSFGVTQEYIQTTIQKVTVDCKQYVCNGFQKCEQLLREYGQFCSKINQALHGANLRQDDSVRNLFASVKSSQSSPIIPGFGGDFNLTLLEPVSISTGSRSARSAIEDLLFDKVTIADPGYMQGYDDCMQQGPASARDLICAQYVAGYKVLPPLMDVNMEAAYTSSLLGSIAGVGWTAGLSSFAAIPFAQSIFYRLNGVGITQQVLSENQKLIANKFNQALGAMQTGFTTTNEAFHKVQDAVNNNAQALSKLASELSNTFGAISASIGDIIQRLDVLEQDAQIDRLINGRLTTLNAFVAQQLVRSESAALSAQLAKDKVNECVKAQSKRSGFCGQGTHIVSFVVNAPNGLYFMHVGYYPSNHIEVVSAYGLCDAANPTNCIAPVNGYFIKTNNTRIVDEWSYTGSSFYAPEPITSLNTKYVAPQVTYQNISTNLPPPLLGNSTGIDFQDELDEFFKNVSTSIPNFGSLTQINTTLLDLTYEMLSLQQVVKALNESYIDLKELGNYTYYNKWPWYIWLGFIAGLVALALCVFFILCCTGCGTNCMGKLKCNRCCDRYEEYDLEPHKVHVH
# B1: VHH R4_DC6 (VHH)
# VHH: QVQLQESGGGLVQAGDSLRLSCAASGRILSTFTMGWFRQAPGKEREFVAAMRWNGGTKNYADSVKGRFTISRDNANSVVYLQMNSTKPEDTAVYYCAAAYVSKANYGSLWYRTPSLYDYWGQGTQVTVSS
# B2: VHH R3_DC23 (VHH)
# VHH: QVQLQESGGGLVQAGDSLTLSCAVSGRIFSTYTMGWFRQAPGKEREFVAAVRWGAGTIYYADSMKGRFTISRDSAKNTVDLQMNSTKPEDTAVYYCGAAYVSKANYGSLWYQDSRRYDYWGQGTQVTVSS
# B3: VHH R3_C4 (VHH)
# VHH: QVQLQESGGGLVQAGDSLRLSCAVSGRPFSTYTMGWFRQAPGKEREFVAAMRWSGGTIYYADSVKGRFTISRDNDKNTVNLEMNSLKPEDTAVYYCAAAYVSKANYGSLWYRASGLYDYWGQGTQVTVSS
# B4: VHH R4_DC16 (VHH)
# VHH: QVQLQESGGGLVQAGDSLRLSCAVSGRPFSTYTMGWFRQAPGKEREFVAAMRWSGGTIYYADSVKGRFTISRDNAQNTVNLQMNSLKPEDTAVYYCAAAYVSKANYGSSWYRNSGLYDYWGQGTQVTVSS
# B5: VHH R3_DC2 (VHH)
# VHH: QVQLQESGGGLVQTGDSLRLSCAVSGRPFSTYTMGWFRQAPGKEREFVASMRWSGGTKYYSDSVKGRFSISRDNDQNTVNLQMNSLKPEDTAVYYCAAAYVSKANYGSLWYRNSGLYDYWGQGTQVTVSS
# B6: VHH R3_DC20 (VHH)
# VHH: QVQLQESGGGLVQAGDSLRLSCAVSGRPFSTYTMGWFRQAPGKEREFVAAMRWSGGTIYYADSVKGRFTISRDNAQNTVNLQMNSLEPEDTAVYYCAAAYVSKANYGSLWYRNSGLYDYWGQGTQVTVSS
# B7: VHH R4_DC13 (VHH)
# VHH: QVQLQESGGGLVQTGDSLRLSCAVSGRPFSTYTMGWFRQAPGKEREFVASMRWSGGTVYYSDSVKGRFTISRDNDKNTVNLQMNNLKPEDTAVYYCAAAYVSKANYGSFWYRNSDLYDYWGQGTQVTVSS
# B8: VHH R4_DC20 (VHH)
# VHH: QVQLQESGGGLVQTGDSLRLSCAVSGRPFSTYTMGWFRQAPGKEREFVASMRWSGGTMNYADSVKGRFTISRDNDQNTVNLQMNSLKPEDTAVYYCAAAYVSKANYGSLWYRNSGLYDYWGQGTQVTVSS
# B9: VHH R4_DC9 (VHH)
# VHH: QVQLQESGGGLVQAGDSLRLSCAASGRIFSTYTMGWFRQAPGMEREFVAAIRWSGSTVYYADSVKGRFTISRDNAKNTVYLQMNSLKPEDTAVYYCAAARVSKANYGTLWYRASGLYDYWGQGTQVTVSS
# B10: VHH R3_DC9 (VHH)
# VHH: QVQLQESGGGLVQTGDSLRLSCAVSGRPFSTYTMGWFRQAPGKEREFVASMRWSGGTMYYSDSVKGRFTISRDNDKNTVNLQMNSLKPEDTAVYYCAAAYVSKANYGSLWYRNSGLYDYWGQGTQVTVSS
# How the values were obtained:
# BSA [1] = target: T2, BSA (bovine, UniProt P02769); assay: ELISA, coated BSA, dilution series, OD450 [3/3]
# T2 construct: coated control antigen
# T2 sequence (P02769 25-607 limits assumed): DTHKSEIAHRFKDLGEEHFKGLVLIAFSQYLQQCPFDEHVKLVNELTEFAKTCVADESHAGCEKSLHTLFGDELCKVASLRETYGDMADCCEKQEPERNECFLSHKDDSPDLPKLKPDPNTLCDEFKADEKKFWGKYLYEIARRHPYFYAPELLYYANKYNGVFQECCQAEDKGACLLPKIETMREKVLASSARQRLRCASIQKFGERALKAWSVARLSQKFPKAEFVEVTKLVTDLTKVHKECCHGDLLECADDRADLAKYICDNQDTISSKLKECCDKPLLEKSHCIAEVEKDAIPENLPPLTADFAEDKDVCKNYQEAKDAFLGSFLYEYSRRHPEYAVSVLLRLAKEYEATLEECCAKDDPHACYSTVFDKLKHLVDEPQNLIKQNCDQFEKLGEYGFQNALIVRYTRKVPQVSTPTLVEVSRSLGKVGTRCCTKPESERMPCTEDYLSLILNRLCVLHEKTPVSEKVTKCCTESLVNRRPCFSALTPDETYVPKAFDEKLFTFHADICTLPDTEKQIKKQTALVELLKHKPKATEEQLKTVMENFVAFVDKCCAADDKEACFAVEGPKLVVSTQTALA
# [2] = target: T1, MERS-COV spike expressed on transfected …; assay: flow cytometry, transfected HEK cells, MFI GFP+/GFP- cells [2/3]
# [3] = target: T3, SARS-COV-2 RBD (His-tagged, Sinobiologicals) (SARS-CoV-2 (Wuhan), UniProt P0DTC2 319-541); assay: ELISA, coated antigen, dilution series, OD450 [3/3]
# [4] = target: T3, SARS-COV-2 RBD (His-tagged, …); assay: ELISA, coated antigen, dilution series, OD450 [1/3]
# BSA [5] = target: T2, BSA; assay: ELISA, coated BSA, dilution series, OD450 [1/3]
# [6] = target: T3, SARS-COV-2 RBD (His-tagged, …); assay: ELISA, periplasmic extract 1/10, OD450 antigen/OD450 BSA [B]
# [7] = target: T1, MERS-COV spike expressed on transfected …; assay: flow cytometry, transfected HEK cells, MFI GFP+/GFP- cells [1/3]
# BSA [8] = target: T2, BSA; assay: ELISA, coated BSA, dilution series, OD450 [2/3]
# [9] = target: T3, SARS-COV-2 RBD (His-tagged, …); assay: ELISA, periplasmic extract 1/10, OD450 antigen/OD450 BSA [D00002 FIG. 1 cont. D]
# [10] = target: T1, MERS-COV spike expressed on transfected …; assay: flow cytometry, transfected HEK cells, MFI GFP+/GFP- cells [3/3]
# [11] = target: T3, SARS-COV-2 RBD (His-tagged, …); assay: ELISA, periplasmic extract 1/10, OD450 antigen/OD450 BSA
# [12] = target: T3, SARS-COV-2 RBD (His-tagged, …); assay: ELISA, periplasmic extract 1/10, OD450 antigen/OD450 BSA [D00002 FIG. 1 cont. D]; remark: listed apart in the source
Binder,binding result [2],binding result (BSA [5]),binding result [7],binding result (BSA [8]),binding result [11],other results
B1,no binding (tested: not given),–,–,–,–,binding result (BSA [1]): no binding (tested: 10 µg/ml); binding result [3]: no binding (tested: 10 µg/ml)
B2,no binding (tested: not given),no binding (tested: 10 µg/ml),–,–,–,binding result [4]: no binding (tested: 10 µg/ml)
B3,–,–,no binding (tested: not given),no binding (tested: 10 µg/ml),–,"binding result [6]: no binding (tested: extract 1/10, concentration not given)"
B4,–,–,–,no binding (tested: 10 µg/ml),–,"binding result [9]: no binding (tested: extract 1/10, concentration not given); binding result [10]: no binding (tested: not given)"
B5,–,–,no binding (tested: not given),no binding (tested: 10 µg/ml),"no binding (tested: extract 1/10, concentration not given)",–
B6,–,no binding (tested: 10 µg/ml),no binding (tested: not given),–,"no binding (tested: extract 1/10, concentration not given)",–
B7,no binding (tested: not given),–,–,no binding (tested: 10 µg/ml),–,"binding result [12]: no binding (tested: extract 1/10, concentration not given)"
B8,–,no binding (tested: 10 µg/ml),–,–,–,binding result [4]: no binding (tested: 10 µg/ml); binding result [10]: no binding (tested: not given)
B9,no binding (tested: not given),–,–,–,–,binding result (BSA [1]): no binding (tested: 10 µg/ml); binding result [3]: no binding (tested: 10 µg/ml)
B10,–,–,no binding (tested: not given),–,"no binding (tested: extract 1/10, concentration not given)",–
